Sequences and labels used below:
T1: PUF4 RNA-binding domain (Saccharomyces cerevisiae, UniProt P25339 537-888)
T1 sequence: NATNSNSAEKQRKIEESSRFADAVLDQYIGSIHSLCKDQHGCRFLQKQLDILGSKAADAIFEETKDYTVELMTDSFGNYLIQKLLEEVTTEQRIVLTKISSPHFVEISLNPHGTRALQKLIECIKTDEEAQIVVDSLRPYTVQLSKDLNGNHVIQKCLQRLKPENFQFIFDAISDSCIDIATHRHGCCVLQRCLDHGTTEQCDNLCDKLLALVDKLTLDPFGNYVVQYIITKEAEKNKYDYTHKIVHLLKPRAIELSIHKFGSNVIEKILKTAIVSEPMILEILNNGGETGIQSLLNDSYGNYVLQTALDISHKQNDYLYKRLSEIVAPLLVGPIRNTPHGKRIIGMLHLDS

B1: Id_ii_S1_P3E.3_K3.2_C3.2_[C-2A]_[T-1C]_H3.2_A3.1_F3.1_T3.2_[T9C]_[A10T] (ssRNA)
RNA: UCUCUUACUAUAUAUACUUCUCUU
B2: Id_ii_S1_P3E.3_K3.2_C3.2_[C-2A]_[T-1G]_H3.2_A3.1_F3.1_T3.2_[T9G]_[A10C] (ssRNA)
RNA: UCUCUUAGUAUAUAUAGCUCUCUU
B3: Id_ii_S1_P3E.3_K3.2_C3.2_[C-2T]_[T-1A]_H3.2_A3.1_F3.1_T3.2_[A10T] (ssRNA)
RNA: UCUCUUUAUAUAUAUAUUUCUCUU
B4: Id_ii_S1_P3E.3_K3.2_C3.2_[C-2T]_H3.2_A3.1_F3.1_T3.2_[T9C]_[A10T] (ssRNA)
RNA: UCUCUUUUUAUAUAUACUUCUCUU
B5: Id_ii_S1_P3E.3_K3.2_C3.2_[C-2T]_H3.2_A3.1_F3.1_T3.2_[T9C]_[A10C] (ssRNA)
RNA: UCUCUUUUUAUAUAUACCUCUCUU
B6: Id_ii_S1_P3E.3_K3.2_C3.2_[C-2T]_[T-1A]_H3.2_A3.1_F3.1_T3.2_[A10G] (ssRNA)
RNA: UCUCUUUAUAUAUAUAUGUCUCUU
B7: Id_ii_S1_P3E.3_K3.2_C3.2_[C-2T]_H3.2_A3.1_F3.1_T3.2_[A10C] (ssRNA)
RNA: UCUCUUUUUAUAUAUAUCUCUCUU
B8: Id_ii_S1_P3E.3_K3.2_C3.2_[C-2T]_H3.2_A3.1_F3.1_T3.2_[T9G]_[A10C] (ssRNA)
RNA: UCUCUUUUUAUAUAUAGCUCUCUU
B9: Ic_S1_P4E.1_K4.1_C4.1_H4.1_A4.1_[A6T]_F4.1_T4.1 (ssRNA)
RNA: UCUCUUUGUAUUUUAUCUCUU
B10: Id_ii_S1_P3E.3_K3.2_C3.2_[C-2A]_[T-1G]_H3.2_A3.1_F3.1_T3.2_[A10G] (ssRNA)
RNA: UCUCUUAGUAUAUAUAUGUCUCUU
B11: Id_ii_S1_P3E.3_K3.2_C3.2_[C-2T]_H3.2_A3.1_F3.1_T3.2 (ssRNA)
RNA: UCUCUUUUUAUAUAUAUAUCUCUU
B12: Id_ii_S1_P3E.3_K3.2_C3.2_[C-2A]_[T-1C]_H3.2_A3.1_F3.1_T3.2_[A10C] (ssRNA)
RNA: UCUCUUACUAUAUAUAUCUCUCUU
B13: Id_ii_S1_P3E.3_K3.2_C3.2_[C-2A]_[T-1A]_H3.2_A3.1_F3.1_T3.2_[T9C]_[A10G] (ssRNA)
RNA: UCUCUUAAUAUAUAUACGUCUCUU
B14: Id_ii_S1_P3E.3_K3.2_C3.2_[C-2T]_H3.2_A3.1_F3.1_T3.2_[T9G]_[A10T] (ssRNA)
RNA: UCUCUUUUUAUAUAUAGUUCUCUU
B15: Ib_S1_P4E.1_K4.1_C4.1_H4.1_[T1C]_A4.1_[T7A]_F4.1_T4.1 (ssRNA)
RNA: UCUCUUCGUAUAAUAUCUCUU
B16: Id_ii_S1_P3E.3_K3.2_C3.2_[C-2T]_[T-1A]_H3.2_A3.1_F3.1_T3.2_[A10C] (ssRNA)
RNA: UCUCUUUAUAUAUAUAUCUCUCUU
B17: Ib_S1_P4E.1_K4.1_C4.1_H4.1_[T1A]_A4.1_[A6T]_F4.1_T4.1 (ssRNA)
RNA: UCUCUUAGUAUUUUAUCUCUU
B18: Id_ii_S1_P3E.3_K3.2_C3.2_[C-2T]_[T-1A]_H3.2_A3.1_F3.1_T3.2_[T9C]_[A10G] (ssRNA)
RNA: UCUCUUUAUAUAUAUACGUCUCUU
B19: Id_ii_S1_P3E.3_K3.2_C3.2_[C-2A]_[T-1G]_H3.2_A3.1_F3.1_T3.2_[T9C]_[A10C] (ssRNA)
RNA: UCUCUUAGUAUAUAUACCUCUCUU
B20: Id_ii_S1_P3E.3_K3.2_C3.2_[C-2A]_[T-1C]_H3.2_A3.1_F3.1_T3.2_[T9G]_[A10C] (ssRNA)
RNA: UCUCUUACUAUAUAUAGCUCUCUU
B21: Id_ii_S1_P3E.3_K3.2_C3.2_[C-2T]_[T-1A]_H3.2_A3.1_F3.1_T3.2_[T9G]_[A10T] (ssRNA)
RNA: UCUCUUUAUAUAUAUAGUUCUCUU
B22: Id_ii_S1_P3E.3_K3.2_C3.2_[C-2A]_[T-1C]_H3.2_A3.1_F3.1_T3.2_[T9C]_[A10C] (ssRNA)
RNA: UCUCUUACUAUAUAUACCUCUCUU
B23: Id_ii_S1_P3E.3_K3.2_C3.2_[C-2T]_H3.2_A3.1_F3.1_T3.2_[A10G] (ssRNA)
RNA: UCUCUUUUUAUAUAUAUGUCUCUU
B24: Id_ii_S1_P3E.3_K3.2_C3.2_[C-2T]_H3.2_A3.1_F3.1_T3.2_[T9A]_[A10T] (ssRNA)
RNA: UCUCUUUUUAUAUAUAAUUCUCUU
B25: Id_ii_S1_P3E.3_K3.2_C3.2_[C-2A]_[T-1A]_H3.2_A3.1_F3.1_T3.2_[T9G]_[A10T] (ssRNA)
RNA: UCUCUUAAUAUAUAUAGUUCUCUU
B26: Id_ii_S1_P3E.3_K3.2_C3.2_[C-2T]_[T-1A]_H3.2_A3.1_F3.1_T3.2_[T9A]_[A10T] (ssRNA)
RNA: UCUCUUUAUAUAUAUAAUUCUCUU
B27: Id_ii_S1_P3E.3_K3.2_C3.2_[C-2A]_[T-1C]_H3.2_A3.1_F3.1_T3.2_[A10G] (ssRNA)
RNA: UCUCUUACUAUAUAUAUGUCUCUU
B28: Id_ii_S1_P3E.3_K3.2_C3.2_[C-2A]_[T-1G]_H3.2_A3.1_F3.1_T3.2_[T9G]_[A10T] (ssRNA)
RNA: UCUCUUAGUAUAUAUAGUUCUCUU
B29: Id_ii_S1_P3E.3_K3.2_C3.2_[C-2T]_H3.2_A3.1_F3.1_T3.2_[A10T] (ssRNA)
RNA: UCUCUUUUUAUAUAUAUUUCUCUU
B30: Id_ii_S1_P3E.3_K3.2_C3.2_[C-2A]_[T-1C]_H3.2_A3.1_F3.1_T3.2_[T9C] (ssRNA)
RNA: UCUCUUACUAUAUAUACAUCUCUU
B31: Id_ii_S1_P3E.3_K3.2_C3.2_[C-2T]_H3.2_A3.1_F3.1_T3.2_[T9C]_[A10G] (ssRNA)
RNA: UCUCUUUUUAUAUAUACGUCUCUU
B32: Ib_S1_P4E.1_K4.1_C4.1_H4.1_[T1A]_A4.1_[A6G]_F4.1_T4.1 (ssRNA)
RNA: UCUCUUAGUAUGUUAUCUCUU
B33: Ib_S1_P4E.1_K4.1_C4.1_H4.1_[T1A]_A4.1_[T7A]_F4.1_T4.1 (ssRNA)
RNA: UCUCUUAGUAUAAUAUCUCUU
B34: Id_ii_S1_P3E.3_K3.2_C3.2_[C-2T]_[T-1A]_H3.2_A3.1_F3.1_T3.2_[T9C]_[A10T] (ssRNA)
RNA: UCUCUUUAUAUAUAUACUUCUCUU
B35: Id_ii_S1_P3E.3_K3.2_C3.2_[C-2A]_[T-1A]_H3.2_A3.1_F3.1_T3.2_[T9G]_[A10C] (ssRNA)
RNA: UCUCUUAAUAUAUAUAGCUCUCUU
B36: Id_ii_S1_P3E.3_K3.2_C3.2_[C-2A]_[T-1A]_H3.2_A3.1_F3.1_T3.2_[T9C]_[A10T] (ssRNA)
RNA: UCUCUUAAUAUAUAUACUUCUCUU
B37: Id_ii_S1_P3E.3_K3.2_C3.2_[C-2A]_[T-1G]_H3.2_A3.1_F3.1_T3.2_[A10T] (ssRNA)
RNA: UCUCUUAGUAUAUAUAUUUCUCUU
B38: Id_ii_S1_P3E.3_K3.2_C3.2_[C-2T]_[T-1A]_H3.2_A3.1_F3.1_T3.2_[T9C] (ssRNA)
RNA: UCUCUUUAUAUAUAUACAUCUCUU
B39: Id_ii_S1_P3E.3_K3.2_C3.2_[C-2A]_[T-1G]_H3.2_A3.1_F3.1_T3.2_[T9A] (ssRNA)
RNA: UCUCUUAGUAUAUAUAAAUCUCUU
B40: Id_ii_S1_P3E.3_K3.2_C3.2_[C-2T]_H3.2_A3.1_F3.1_T3.2_[T9A]_[A10G] (ssRNA)
RNA: UCUCUUUUUAUAUAUAAGUCUCUU
B41: Id_ii_S1_P3E.3_K3.2_C3.2_[C-2A]_[T-1A]_H3.2_A3.1_F3.1_T3.2_[T9C] (ssRNA)
RNA: UCUCUUAAUAUAUAUACAUCUCUU
B42: Id_ii_S1_P3E.3_K3.2_C3.2_[C-2A]_[T-1C]_H3.2_A3.1_F3.1_T3.2_[T9A] (ssRNA)
RNA: UCUCUUACUAUAUAUAAAUCUCUU
B43: Id_ii_S1_P3E.3_K3.2_C3.2_[C-2T]_H3.2_A3.1_F3.1_T3.2_[T9C] (ssRNA)
RNA: UCUCUUUUUAUAUAUACAUCUCUU
B44: Id_ii_S1_P3E.3_K3.2_C3.2_[C-2A]_[T-1G]_H3.2_A3.1_F3.1_T3.2_[A10C] (ssRNA)
RNA: UCUCUUAGUAUAUAUAUCUCUCUU
B45: Id_ii_S1_P3E.3_K3.2_C3.2_[C-2A]_[T-1A]_H3.2_A3.1_F3.1_T3.2_[T9C]_[A10C] (ssRNA)
RNA: UCUCUUAAUAUAUAUACCUCUCUU

The data set addresses T1, PUF4 RNA-binding domain. In words: Mg; RNA-MaP; 20 mM Na-HEPES pH 7.4, 30 mM KOAc, 0.75 mM MgCl2, 0.1% Tween-20, 5% glycerol, 0.1 mg/mL BSA, 2 mM DTT; 25 C; 0.0125-409.6 nM protein. The conditions noted are these: tags: N-His6-TEV cleaved; C-SNAP kept, Cy3B-labelled; label: tethered on chip by stalled RNA polymerase.
Usually Kd stands for the equilibrium constant for the complex coming apart. The molecule B1 displayed a Kd of 918 nM.

In turn, B2 displayed a Kd of 494 nM.

In the case of B3, the Kd is 329 nM.

Regarding B4, the Kd stood at 708 nM.

In the case of B5, the Kd amounted to 1430 nM. Compared with the last molecule, the Kd is about 2-fold higher.

Turning to B6, the affinity, expressed as Kd, was 427 nM.

Molecule B7 registered a Kd of 759 nM. This Kd lies about 1.8-fold higher than the previous one.

Consider B8, for which the Kd was found to be 490 nM.

Consider B9, for which the affinity, expressed as Kd, was 2.46 nM. Compared with the last molecule, the Kd is about 200-fold lower.

Molecule B10 showed a Kd of 502 nM.

In the case of B11, the affinity, expressed as Kd, was 510 nM.

On to B12, for which the Kd amounted to 886 nM. This Kd is about 1.7-fold higher than that of the molecule before.

As for B13, the Kd was found to be 1980 nM.

B14 came in with a Kd of 272 nM.

B15 registered a Kd of 131 nM.

In turn, B16 returned a Kd of 370 nM.

In turn, B17 came in with a Kd of 798 nM.

For the molecule B18, binding was characterised by a dissociation constant (Kd) of 503 nM.

The molecule B19 registered a Kd of 954 nM.

Molecule B20 showed a Kd of 2200 nM.

For the molecule B21, the affinity, expressed as Kd, was 140 nM. This Kd lies about 16-fold lower than the previous one.

B22 yielded a Kd of 848 nM.

As for B23, the Kd was 1060 nM.

Regarding B24, the Kd was 968 nM.

The molecule B25 gave a Kd of 458 nM.

For B26, binding was characterised by a dissociation constant (Kd) of 642 nM. This Kd and that of the molecule before are within 1.5-fold of each other.

For B27, the Kd was found to be 968 nM.

Take B28: the Kd is 156 nM.

On to B29, for which the Kd came to 457 nM.

Consider B30, for which the dissociation constant (Kd) stood at 1290 nM. This Kd is about 2.8-fold higher than that of the molecule before.

Take B31: binding was characterised by a dissociation constant (Kd) of 1560 nM. This Kd and that of the molecule before are within 1.5-fold of each other.

B32 came in with a Kd of 1080 nM. This Kd and that of the molecule before are within 1.5-fold of each other.

B33: the Kd was 126 nM.

For the molecule B34, binding was put at a Kd of 172 nM.

As to B35, the affinity, expressed as Kd, was 633 nM.

In turn, B36 registered a Kd of 344 nM.

Consider B37, for which the Kd came to 452 nM.

B38: the Kd came to 384 nM.

Turning to B39, the Kd is 877 nM.

The molecule B40 registered a Kd of 1550 nM.

Turning to B41, the Kd was 886 nM.

As to B42, the Kd was 1360 nM.

B43 returned a Kd of 1210 nM.

Molecule B44 returned a Kd of 652 nM. This Kd is about 1.9-fold lower than that of the molecule before.

The molecule B45 came in with a Kd of 2250 nM.

These data come from PMC9352680, “A comprehensive thermodynamic model for RNA binding by the Saccharomyces cerevisiae Pumilio protein PUF4”.
